According to IntAct's records for PubMed 23386062:

B1: Ras-related protein Rab-9A (Homo sapiens), P51151 (parent)
chain: MAGKSSLFKVILLGDGGVGKSSLMNRYVTNKFDTQLFHTIGVEFLNKDLEVDGHFVTMQIWDTAGQERFRSLRTPFYRGSDCCLLTFSVDDSQSFQNLSNWKKEFIYYADVKEPESFPFVILGNKIDISERQVSTEEAQAWCRDNGDYPYFETSAKDATNVAAAFEEAVRRVLATEDRSDHLIQTDTVNLHRKPKPSSSCC
B2: Ras-related protein Rab-4B (Rattus norvegicus (Rat)), P51146 (parent)
chain: MAETYDFLFKFLVIGSAGTGKSCLLHQFIENKFKQDSNHTIGVEFGSRVVNVGGKTVKLQIWDTAGQERFRSVTRSYYRGAAGALLVYDITSRETYNSLAAWLTDARTLASPNIVVILCGNKKDLDPEREVTFLEASRFAQENELMFLETSALTGENVEEAFLKCARTILNKIDSGELDPERMGSGIQYGDISLRQLRQPRSAQAVAPQPCGC

Variants of: B1
Conditions: with nisch_human NISCH

effect of a mutation on the interaction	Variant
disrupting interaction	MAGKSSLFKVILLGDGGVGKDSLMNRYVTNKFDTQLFHTIGVEFLNKDLEVDGHFVTMQIWDTAGQERFRSLRTPFYRGSDCCLLTFSVDDSQSFQNLSNWKKEFIYYADVKEPESFPFVILGNKIDISERQVSTEEAQAWCRDNGDYPYFETSAKDATNVAAAFEEAVRRVLATEDRSDHLIQTDTVNLHRKPKPSSSCC [S21D]

Variants of: B2
Conditions: with nisch_human NISCH

effect of a mutation on the interaction	Variant
disrupting interaction	MAETYDFLFKFLVIGSAGTGKNCLLHQFIENKFKQDSNHTIGVEFGSRVVNVGGKTVKLQIWDTAGQERFRSVTRSYYRGAAGALLVYDITSRETYNSLAAWLTDARTLASPNIVVILCGNKKDLDPEREVTFLEASRFAQENELMFLETSALTGENVEEAFLKCARTILNKIDSGELDPERMGSGIQYGDISLRQLRQPRSAQAVAPQPCGC [S22N]
